Results on 1 substance are retold here after patent publication US20050202538A1 (Merck KGaA, published 2005).

The assay addresses T1, EPO receptor (expressed on TF-1 cells) (UniProt P19235).
T1 sequence (looked up): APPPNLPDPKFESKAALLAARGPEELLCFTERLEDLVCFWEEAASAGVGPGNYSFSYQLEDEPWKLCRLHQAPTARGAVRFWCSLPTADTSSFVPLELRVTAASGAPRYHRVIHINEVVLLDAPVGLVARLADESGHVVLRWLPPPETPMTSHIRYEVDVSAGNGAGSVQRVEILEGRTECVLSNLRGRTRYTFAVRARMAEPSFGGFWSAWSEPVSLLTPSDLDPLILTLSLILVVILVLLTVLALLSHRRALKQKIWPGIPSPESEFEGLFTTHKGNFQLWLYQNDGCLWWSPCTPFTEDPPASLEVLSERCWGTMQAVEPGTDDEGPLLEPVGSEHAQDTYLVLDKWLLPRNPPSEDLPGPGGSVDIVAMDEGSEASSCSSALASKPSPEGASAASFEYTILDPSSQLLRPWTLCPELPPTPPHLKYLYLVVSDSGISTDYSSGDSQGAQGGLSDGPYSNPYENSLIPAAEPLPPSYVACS
The assay is described as follows: cell-based or functional assay.

EPO (Aranesp®) (ligand) gave an ED50, TF-1 cell proliferation (3H-thymidine incorporation); S.D. 0.96, N 10 of 2.4 ng/mL.
